Test results: publication PMC7057348

Legend:
Assay in all cases: SPR; Biacore T200; omalizumab, Fabs and scFv immobilised on CM5 chips by amine coupling; IgE-Fc injected in a twofold dilution series (100-0.4 nM), 20 µl/min, 240 s association, 900 s dissociation; 25°C; 20 mM HEPES pH 7.4, 150 mM NaCl, 0.005% (v/v) surfactant P20; biphasic model with one higher-affinity and one lower-affinity interaction
[1] = target: scFvXol (omalizumab-derived scFv)
[2] = target: Omalizumab (intact anti-IgE monoclonal IgG1 antibody)
[3] = target: FabXol3 (omalizumab-derived Ser81Arg, Gln83Arg, Leu158Pro light-chain mutant Fab)
[4] = target: FabXol2 (omalizumab-derived Ser81Arg, Gln83Arg light-chain mutant Fab)
[5] = target: FabXol (wild-type omalizumab Fab)

koff1 (biphasic model) [1]: 0.00029 s⁻¹
koff2 (biphasic model) [1]: 0.0087 s⁻¹
kon1 (biphasic model) [1]: 690000 M⁻¹ s⁻¹
kon2 (biphasic model) [1]: 310000 M⁻¹ s⁻¹
koff1 (biphasic model) [2]: 0.0007 s⁻¹
koff2 (biphasic model) [2]: 0.012 s⁻¹
kon1 (biphasic model) [2]: 330000 M⁻¹ s⁻¹
kon2 (biphasic model) [2]: 290000 M⁻¹ s⁻¹
koff1 (biphasic model) [3]: 0.00033 s⁻¹
koff2 (biphasic model) [3]: 0.009 s⁻¹
kon1 (biphasic model) [3]: 970000 M⁻¹ s⁻¹
kon2 (biphasic model) [3]: 270000 M⁻¹ s⁻¹
koff1 (biphasic model) [4]: 0.00045 s⁻¹
koff2 (biphasic model) [4]: 0.011 s⁻¹
kon1 (biphasic model) [4]: 510000 M⁻¹ s⁻¹
kon2 (biphasic model) [4]: 330000 M⁻¹ s⁻¹
koff1 (biphasic model) [5]: 0.00056 s⁻¹
koff2 (biphasic model) [5]: 0.012 s⁻¹
kon1 (biphasic model) [5]: 570000 M⁻¹ s⁻¹
kon2 (biphasic model) [5]: 440000 M⁻¹ s⁻¹
Substance: IgE-Fc (Fc region of immunoglobulin E) (domain or fragment)
